The chains are these.
B1: chaperonin CPN60-2, mitochondrial (protein)
chain: MYRFATSLASKARIARSSTQQIGSRVTWNRNYAAKDIKFGVEARALMLKGVEELADAVKVTMGPKGRNVVIEQSFGAPKVTKDGVTVAKSIEFKDKVKNIGASLVKQVANATNDVAGDGTTCATILTKAIFTEGCKSVAAGMNAMDLRRGINMAVDAVVTNLKSRARMISTSEEIAQVGTISANGEREIGELIAKAMEKVGKEGVITISDGKTLYNELEVVEGMKLDRGYISPYFITNQKNQKCELEDPLIIIHEKKISSINAIVKVLELALKRQRSLLIVAEDVESDALATLILNKLRAGIKVCAIKAPGFGENRKSGLQDLAVLTGGQLITEELGLNLEKVDLDLFGSCKKITISKDDTVILDGAGDKKAIEERCEQIRSAIENSTSDYDKEKLQERLAKLSGGVAVLKIGGASEAEVGEKKDRVTDALNATKAAVEEGIVPGGGVALLYASSELDKLQTANFDQKIGVQIIQNALKTPVHTIASNAGVEGAVVVGKLLEQNDPDLGYDAAKGEYVDMVKTGIIDPLKVIRTALVDAASVSSLMTTTEAVVSELPKDDKDVPAMGGGMGGMDY
modifications: Glycine max
notes: spot also identified as chaperonin CPN60-2, mitochondrial-like isoform X1
B2: transketolase, chloroplastic (protein)
chain: MASSTSSISLSQALLRPTTTSLPSSSSSLRLTPTLRPTPPALSLRRRLTTSIRAAASVKTVEKATADAALVEKSVNTIRFLAIDAVEKANSGHPGLPMGCAPMGHVLYDETMKYNPKNPFWFNRDRFVLSAGHGCMLQYALLHLAGFDSVKEEDLREFRQWGSRTPGHPENFETPGIEVTTGPLGQGIANAVGLALAEKHLAARYNKPDNEIVDHYTYAILGDGCQMEGIANEACSLAGHWGLGKLIAFYDDNHISIDGNTEIAFTESVDSRFEGLGWHVIWVKNGNNGYDDIRAAIKEAKAVKDKPTLIKVTTTIGYGSPNKANSYSVHGSALGAKEVDATRQNLGWSHEPFHVPEDVKKHWSRHTPEGAALEAEWNAKFAEYEKKYKEEAAELKSIINGEFPAGWEKALPTYTPESPADATRNLSQTNLNALAKVLPGLLGGSADLASSNMTLLKMFGDFQKDTPAERNVRFGVREHGMGAICNGIALHSPGLIPYCATFFVFTDYMRGAIRLSALSEAGVIYVMTHDSIGLGEDGPTHQPIEHLASFRAMPNILMLRPADGNETAGAYKVAVLNRKRPSILALSRQKLPQLPGTSIEGVEKGGYTISDNSTGNKPDVILIGTGSELEIAAKAADDLRKEGKAVRVVSLVSWELFDEQSEAYKESVFPAAVSARVSIEAGSTFGWEKIVGAKGKAIGIDRFGASAPAGRIYKEFGITKEAVVAAAKELI
B3: aconitate hydratase 1 (protein)
chain: MATENPFNSILTTLEKPGGAGEFGKYFSLPALNDRRIDRLPYSVRILLESAIRNCDEFQVKSNDVEKIIDWENTSPKLVEIPFKPARVLLQDFTGVPAVVDLACMRDAMNKLGGDSNKINPLVPVDLVIDHSVQVDVARSENAVQANMELEFQRNKERFGFLKWGSNAFNNMLVVPPGSGIVHQVNLEYLGRVVFNTNGVLYPDSVVGTDSHTTMIDGLGVAGWGVGGIEAEAAMLGQPMSMVLPGVVGFKLLGKLRDGVTATDLVLTVTQMLRKHGVVGKFVEFYGEGMSELSLADRATIANMSPEYGATMGFFPVDHVTLQYLRLTGRSDETVSMIESYLRANKMFVDYSEPQVERVYSSYLELNLEDVEPCVSGPKRPHDRVPLREMKVDWHACLNNKVGFKGFAVPKESQNKVAEFTFQGTPAHLRHGDVVIAAITSCTNTSNPSVMLGAALVAKKACELGLQVKPWIKTSLAPGSGVVTKYLQRSGLQKYLNELGFNIVGYGCTTCIGNSGDINEAVASAITENDIVAAAVLSGNRNFEGRVHPLTRANYLASPPLVVAYALAGTVDIDFDTEPIGIGKDGTKIFFRDIWPSSEEIANVVQSSVLPAMFRDTYNAITQGNPMWNNLSVPTGTLYAWDPTSTYIHEPPYFRDMSMSPPGSHGVKDAYCLLNFGDSITTDHISPAGSIHKDSPAARYLIERGVDRRDFNSYGSRRGNDEVMARGTFANIRIVNKFLNGEVGPKTIHIPSGEKLSVFDAAEKYKSEGHDMIILAGAEYGSGSSRDWAAKGPMLLGVKAVIAKSFERIHRSNLVGMGIIPLCFKPGDDADSLGLTGHERYTIDLPSNVNEIRPGQDVTVVTDAGKSFVSTLRFDTEVELAYFNHGGILQYVIRNMVNAKH
modifications: Glycine max

This assay concerns IgE antibodies from soybean-allergic patients. The experiment in a line: Immunoblotting of two-dimensional electrophoresis pattern of soybean proteins with patient serum. The following applies: spot in 2D electrophoresis gel of soybean proteins; patient serum compared with healthy subject serum. The assay is classed as binding, human. The gist of the method: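 Soybean proteins were separated by 2-D electrophoresis, transferred to PVDF and blocked in 5% skim milk/PBST. Blots were probed with 3% serum from soybean-allergic patients or healthy subjects for 1 h at room temperature, then anti-human IgE-HRP (1:2500). Chemiluminescent substrate was used, with fluorescent image scanning.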
For orientation: Immunoblotting shows a protein as a band on a membrane.
As for B1, the “specific binding to IgE antibodies from soybean-allergic patients” value (“specific binding to IgE antibodies” for short) is on record as “specific binding”.

For B2, the “specific binding to IgE antibodies” value was “specific binding”.

With B3, the “specific binding to IgE antibodies” value was “specific binding”.

For the origin of these results see US20250262297A1, “ALLERGY ANTIGEN AND EPITOPE THEREOF” (HOYU CO., LTD., priority 2017, published 2025).
